From US20250340660A1 (published 2025)
Where a chain is given by its changes, count along the chain named.

How the values were obtained:
[1] = target: T1, human CD30L (recombinant protein) (human, UniProt P32971 63-234); test: Carterra, human CD30L
T1 construct: also called rhCD30L; TNFSF8
T1 sequence: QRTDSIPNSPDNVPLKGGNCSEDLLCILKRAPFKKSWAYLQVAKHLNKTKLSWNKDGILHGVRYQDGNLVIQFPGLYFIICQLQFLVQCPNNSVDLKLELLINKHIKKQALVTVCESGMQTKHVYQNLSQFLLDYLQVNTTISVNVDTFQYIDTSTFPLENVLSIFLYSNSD

[2] = target: T2, human CD30L expressed on B16 cells (human, UniProt P32971 1-234); test: cell-based or functional assay
T2 sequence (looked up): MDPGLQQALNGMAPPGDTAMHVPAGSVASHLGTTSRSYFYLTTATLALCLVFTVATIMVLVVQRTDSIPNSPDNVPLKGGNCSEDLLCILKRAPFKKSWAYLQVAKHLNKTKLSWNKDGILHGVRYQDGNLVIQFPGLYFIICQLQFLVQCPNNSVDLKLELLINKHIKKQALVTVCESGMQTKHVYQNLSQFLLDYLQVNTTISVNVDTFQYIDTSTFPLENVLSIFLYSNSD

[3] = target: T3, cynomolgus CD30L expressed on HEK293 cells (cynomolgus, UniProt A0A7N9CVX7 1-234); test: cell-based or functional assay
T3 sequence: T2 sequence (looked up) with A19T, M20T, G32E, L41F, V75I, K78R, I204V, I227V

[4] = target: T4, recombinant human CD30L protein (human, UniProt P32971 63-234, limits assumed); test: ELISA, hybridoma supernatant 1/5000 dil, recombinant human CD30L
T4 construct: also called huCD30L; rhCD30L
T4 sequence (looked up): T1 sequence

[5] = target: T5, cynomolgus CD30L expressed on cells (cynomolgus, UniProt A0A7N9CVX7 1-234); test: flow cytometry, hybridoma supernatant 1/50 dil, cells expressing cynomolgus CD30L
T5 construct: whole, on cells; also called cyCD30L; cyno CD30L
T5 sequence: T2 sequence (looked up) with A19T, M20T, G32E, L41F, V75I, K78R, I204V, I227V

[6] = target: T6, human CD30L expressed on cells (human, UniProt P32971 1-234); test: flow cytometry, hybridoma supernatant 1/50 dil, cells expressing human CD30L
T6 construct: also called huCD30L; TNFSF8
T6 sequence: T2 sequence (looked up)

[7] = target: T4, recombinant human CD30L protein; test: ELISA, hybridoma supernatant 1/50 dil, recombinant human CD30L
[8] = target: T4, recombinant human CD30L protein; test: ELISA, hybridoma supernatant 1/500 dil, recombinant human CD30L
recombinant human CD30L = target: T7, recombinant human CD30L (human, UniProt P32971 63-234, limits assumed); test: biosensor: antibody captured, CD30L bound, competitor rhCD30 added; signal of CD30 association (over 0.15 = non-blocking)
T7 construct: also called rhCD30L; TNFSF8
T7 sequence (looked up): T1 sequence
Procedure: Briefly, individual anti-human biosensors were loaded with purified IgG (normalized to 10 μg/mL) and a baseline was measured for each biosensor. Biosensors were saturated with biotin and with polyclonal huIgG and a baseline was measured. […] Biosensors were moved to buffer wells to measure the dissociation rate.

B1: anti-CD30L antibody clone 82 (antibody, V domains shown)
VH: EVQLVESGGGLVQPGGSLRLSCAVSGITFSNAWMSWVRQAPGKGLEWVGRIKSKTYGGTTDYAAPVKGRFIISRDDSKDTLYLQMNSLKTEDTAIYYCTTDPWNYVNYNYFMDVWGKGTTVTVSS
VL: DIQMTQSPSSLSASVGDRVTITCRASQDIRNYLAWYQQKPGKITHLLVYAASTLQSGVPSRFSGSGSGTDFTLTINSLQPEDVATYYCQNYFSVPLTFGGGTKVEIK
notes: Purified recombinant antibody
- Kd [1]: 0.559 nM

B2: anti-CD30L Reference 1 antibody (antibody, human IgG1, lambda, V domains shown)
VH: QVQLQESGPGLVKPSETLSLTCTVSGGSISSYIWSWIRQPAGKGLEWIGRIYASGNTNYNPSLKSRVTISVDTSKNQFSLKLSSMTAADTAVYYCARDYRVAGTYYYYYGLDVWGQGTTVTVSS
VL: QSALTQPASVSGSPGQSITISCTGTSSDVGVYDYVSWYQQHPGKAPKLMIYEVSNRPSGVSNRFSGSKSGNTASLTISGLQTEDEADYYCSSYTSRSTWVFGGGTKLTVLG
- Inhibition of IL-8 release in a dual cell assay (B16-huCD30L cells + K299 cells) IC50 [2]: 1.61 nM
- Inhibition of IL-8 release in a dual cell assay (HEK293-cyCD30L cells + K299 cells) IC50 [3]: 0.79 nM

B3: anti-CD30L antibody Clone 4 (parental, hybridoma) (antibody, V domains shown)
VH: QVQLVESGGGVVQPGRSLRLSCAASGFPFSSYGMHWVRQAPGKGLEWVTFIWFDGNNKDYADSVKGRFSVSRDNSKNTLYLQMNSLRADDTAVYYCARNGVYYGSGAYVDYWGQGTLVTVSS
VL: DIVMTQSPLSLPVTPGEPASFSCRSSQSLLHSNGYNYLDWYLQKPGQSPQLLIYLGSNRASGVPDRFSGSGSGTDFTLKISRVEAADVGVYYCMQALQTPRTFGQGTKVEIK
notes: Tested as diluted hybridoma supernatant from mice with a humanized immunoglobulin locus
- Elisa Binding (OD) [4]: 0.68 OD
- Cell Binding (MFI) [5]: 67.8 MFI
- Cell Binding (MFI) [6]: 151 MFI
- Elisa Binding (OD) [7]: 3.08 OD
- Elisa Binding (OD) [8]: 2.65 OD

B4: anti-CD30L antibody clone 2 (antibody, V domains shown)
VH: EVQLVESGGGLVQPGRSLRLSCAASGFNFDDYAMHWVRQAPGKGLEWVSGISWRSGNIGYAGSVKGRFTISRDNAKNSLYLQMNSLRPEDSALYYCAKDKGIGFNWNYEGFDYWGQGTLVTVSS
VL: DIQMTQSPSSLSASVGDRVTITCRASQGISNHLAWFQQKPGKAPKSLIYAASSLQSGVPSKFSGSGSGTDFTLTISSLQPEDFATYYCQQYVTYPLTFGGGTKVEIK
- Inhibition of IL-8 release in a dual cell assay (B16-huCD30L cells + K299 cells) IC50 [2]: 0.81 nM
- Inhibition of IL-8 release in a dual cell assay (HEK293-cyCD30L cells + K299 cells) IC50 [3]: 0.31 nM

B5: anti-CD30L antibody Clone 2 (parental, hybridoma) (antibody, V domains shown)
VH: B4 VH
VL: B4 VL
notes: as for B3
- Elisa Binding (OD) [4]: 0.565 OD
- Cell Binding (MFI) [5]: 57.6 MFI
- Cell Binding (MFI) [6]: 280 MFI
- Elisa Binding (OD) [7]: 2.15 OD
- Elisa Binding (OD) [8]: 1.71 OD

B6: anti-CD30L antibody clone 2 germlined (antibody, V domains shown)
VH: B4 VH with G62D, P88A, S91T
VL: B4 VL with K61R
- Inhibition of IL-8 release in a dual cell assay (B16-huCD30L cells + K299 cells) IC50 [2]: 0.89 nM
- Inhibition of IL-8 release in a dual cell assay (HEK293-cyCD30L cells + K299 cells) IC50 [3]: 0.41 nM

B7: anti-CD30L antibody clone 80 (antibody, V domains shown)
VH: EVQLVESGGGLVQPGGSLRLSCEVSGFTFSSYDMHWVRQVTGTGLEWVSSIGIGGDTYYPGSVKGRFTISRENAKNSLYLQMNSLRGGDTGVYYCARGEWDLLWYFMDVWGKGTTVTVSS
VL: B4 VL with V15I, N31S, H32W, F36Y, S46L, K61R, Y91A, V92N, T93S, Y94F
notes: Purified recombinant antibody
- Kd [1]: 3.54 nM

B8: anti-CD30L antibody clone 64 (antibody, V domains shown)
VH: EVQLVESGGGLVQPGGSLRLSCAASGFTFSNYAMTWVRQAPGKGLEWVSAISGFGGSTYYADSVKGRFTISRDNSKNTLYLQMNSLRAEDTAVYYCAKDHDYYAFDYWGQGTLVTVSS
VL: not shown
notes: Purified recombinant antibody
- Kd [1]: 1.57 nM

B9: anti-CD30L antibody clone 64 (antibody, V domains shown)
VH: B8 VH
VL: not shown
notes: purified recombinant IgG, humanized mouse strain #1; also called Clone ID 64
- rhCD30L:rhCD30 Blocking (recombinant human CD30L): 0.0633 relative units

B10: anti-CD30L antibody clone 65 (antibody, V domains shown)
VH: B8 VH with R19K, F54Y, D62A, Y80F, T115P
VL: not shown
notes: purified recombinant IgG, humanized mouse strain #1; also called Clone ID 65
- rhCD30L:rhCD30 Blocking (recombinant human CD30L): 0.0522 relative units

B11: anti-CD30L antibody clone 65 (antibody, V domains shown)
VH: B8 VH with R19K, F54Y, D62A, Y80F, T115P
VL: not shown
notes: Purified recombinant antibody
- Kd [1]: 1.52 nM

B12: anti-CD30L antibody clone 63 (antibody, V domains shown)
VH: EVQLVESGGGLVQPGGSLRLSCAASGFMFSSYSMNWVRQAPGKGLEWVSYISSSSSTIYDADSVKGRFTISRDDAKNSLYLQMNSLRDEDTAVYYCTREAYPGYYYNYMDVWGKGTTVTVSS
VL: DIQMTQSPSSLSASVGDRVTITCRASQSISSRLAWYQQKPGKAPNLLIYKASNLESGVPSRFSGSGSGTEFTLTISSLQPDDFATYYCQQYNSYSRTFGQGTKVEIK
notes: Purified recombinant antibody
- Kd [1]: 1.85 nM

B13: anti-CD30L antibody clone 63 (antibody, V domains shown)
VH: B12 VH
VL: B12 VL
notes: purified recombinant IgG, humanized mouse strain #1; also called Clone ID 63
- rhCD30L:rhCD30 Blocking (recombinant human CD30L): 0.0592 relative units

B14: anti-CD30L antibody clone 1 (antibody, V domains shown)
VH: QVQLQESGPGLVKPSETLSLTCTVSGGSISGYYWSWIRQPPVKGLEWIGYIFYSGYTKYNPSLKSRVTISVDTSKNQFSLKLSSVTAADTAVYYCARDRWDFDYWGQGALVTVSS
VL: AIQMTQSPSYLSASVGDRVTIACRASQGIRNNLGWYQQKPGKAPKLLIYAESSLQSGVPSRFSGSGSGTDFTLTISSLQPEDFATYYCLQDFNYPYTFGQGTKLEIK
- Inhibition of IL-8 release in a dual cell assay (B16-huCD30L cells + K299 cells) IC50 [2]: 1.43 nM
- Inhibition of IL-8 release in a dual cell assay (HEK293-cyCD30L cells + K299 cells) IC50 [3]: 0.39 nM

B15: anti-CD30L antibody Clone 3 (parental, hybridoma) (antibody, V domains shown)
VH: B14 VH
VL: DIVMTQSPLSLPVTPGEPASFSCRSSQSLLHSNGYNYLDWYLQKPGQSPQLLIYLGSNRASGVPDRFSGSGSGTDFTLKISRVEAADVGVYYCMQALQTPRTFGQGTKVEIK
notes: as for B3
- Elisa Binding (OD) [4]: 0.662 OD
- Cell Binding (MFI) [5]: 72.4 MFI
- Cell Binding (MFI) [6]: 153 MFI
- Elisa Binding (OD) [7]: 3.5 OD
- Elisa Binding (OD) [8]: 2.54 OD

B16: anti-CD30L antibody Clone 1 (parental, hybridoma) (antibody, V domains shown)
VH: B14 VH
VL: B14 VL
notes: as for B3
- Elisa Binding (OD) [4]: 1.28 OD
- Cell Binding (MFI) [5]: 77.3 MFI
- Cell Binding (MFI) [6]: 208 MFI
- Elisa Binding (OD) [7]: 3.59 OD
- Elisa Binding (OD) [8]: 3.02 OD

B17: anti-CD30L antibody clone 1 germlined (antibody, V domains shown)
VH: B14 VH with V42G, A109T
VL: B14 VL with Y10S, A22T
- Inhibition of IL-8 release in a dual cell assay (B16-huCD30L cells + K299 cells) IC50 [2]: 1.29 nM
- Inhibition of IL-8 release in a dual cell assay (HEK293-cyCD30L cells + K299 cells) IC50 [3]: 0.43 nM
